# Measurements reported in US20240116985A1 (published 2024).
# Starred links: 1 amine or outer side, 2 acyl side, 3 side chain; linkers in the order of their positions; H or OH if unused. Positions of bridges follow the written chain, without caps; N, C: chain ends. Non-standard residues stand in square brackets, D forms with d. Primed or numbered codes have the meaning given here. *: point of attachment. PyrS2″ = (S)-3-amino-1-((pent-4-en-1-yloxy)carbonyl)pyrrolidine-3-carboxylic acid (stapling residue), C=CCCCOC(=O)N1CC[C@@](N[*:1])(C(=O)[*:2])C1; B5(4) = 2,2-bis(4-pentenyl)glycine = 2-amino-2-(pent-4-en-1-yl)hept-6-enoic acid (stitching residue), C=CCCCC(CCCC=C)(N[*:1])C(=O)[*:2]; TfeGA = (S)-2-amino-3-((carboxymethyl)(2,2,2-trifluoroethyl)amino)propanoic acid, O=C([C@H](CN(CC(=O)[*:3])CC(F)(F)F)N[*:1])[*:2]; TriAzDap = Dap whose side chain is a 1H-1,2,3-triazol-1-yl bearing the bracketed 4-substituent; B5(3) = 2,2-bis(4-pentenyl)glycine (stitching residue), C=CCCCC(CCCC=C)(N[*:1])C(=O)[*:2]; Phe(3-COOH) = N[C@@H](Cc1cccc(C(=O)O)c1)C(=O)O; Phe(2-CF3) = N[C@@H](Cc1ccccc1C(F)(F)F)C(=O)O; Phe(2-Cl) = N[C@@H](Cc1ccccc1Cl)C(=O)O; Bta = N[C@@H](Cc1csc2ccccc12)C(=O)O; αAllylPro = C=CC[C@@]1(C(=O)O)CCCN1; tBuAla = CC(C)(C)C[C@H](N)C(=O)O; 3Thi = N[C@@H](Cc1ccsc1)C(=O)O; S8 = C=CCCCCCC[C@](C)(N)C(=O)O; Thr(ol) = C[C@@H](O)[C@H](N)CO; CMe2CO2H = CC(C)(C(=O)O)*; hSer = N[C@@H](CCO)C(=O)O; Abu = CC[C@H](N)C(=O)O; Alaol = C[C@@H](CO)N*; Aib = CC(C)(N)C(=O)O
# T1: beta-catenin in DLD1 TCF/LEF luciferase reporter cells (UniProt P35222 1-781)
# T1 sequence (looked up): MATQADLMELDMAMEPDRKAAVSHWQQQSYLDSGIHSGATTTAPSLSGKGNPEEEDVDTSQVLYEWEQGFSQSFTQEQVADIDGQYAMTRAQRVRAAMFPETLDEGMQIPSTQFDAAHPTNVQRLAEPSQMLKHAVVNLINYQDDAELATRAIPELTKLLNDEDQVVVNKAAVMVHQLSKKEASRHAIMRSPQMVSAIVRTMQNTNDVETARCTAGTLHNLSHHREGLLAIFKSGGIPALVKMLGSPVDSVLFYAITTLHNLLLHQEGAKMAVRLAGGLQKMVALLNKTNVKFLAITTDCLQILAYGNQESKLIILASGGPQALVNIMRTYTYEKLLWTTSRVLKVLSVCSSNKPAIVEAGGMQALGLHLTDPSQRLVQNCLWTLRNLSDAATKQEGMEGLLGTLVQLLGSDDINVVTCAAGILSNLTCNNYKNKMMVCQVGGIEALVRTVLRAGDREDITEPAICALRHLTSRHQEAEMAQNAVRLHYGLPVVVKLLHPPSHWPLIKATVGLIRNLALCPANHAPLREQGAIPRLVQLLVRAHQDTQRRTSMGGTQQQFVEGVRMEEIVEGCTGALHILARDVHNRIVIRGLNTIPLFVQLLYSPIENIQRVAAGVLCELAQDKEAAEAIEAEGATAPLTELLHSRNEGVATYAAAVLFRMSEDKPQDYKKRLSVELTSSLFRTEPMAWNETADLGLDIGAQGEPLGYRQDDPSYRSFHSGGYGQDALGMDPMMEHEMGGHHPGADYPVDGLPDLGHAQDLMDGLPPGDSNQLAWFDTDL
# T2: beta-catenin in DLD1 TCF/LEF luciferase reporter cells (UniProt P35222 1-781)
# T2 sequence (looked up): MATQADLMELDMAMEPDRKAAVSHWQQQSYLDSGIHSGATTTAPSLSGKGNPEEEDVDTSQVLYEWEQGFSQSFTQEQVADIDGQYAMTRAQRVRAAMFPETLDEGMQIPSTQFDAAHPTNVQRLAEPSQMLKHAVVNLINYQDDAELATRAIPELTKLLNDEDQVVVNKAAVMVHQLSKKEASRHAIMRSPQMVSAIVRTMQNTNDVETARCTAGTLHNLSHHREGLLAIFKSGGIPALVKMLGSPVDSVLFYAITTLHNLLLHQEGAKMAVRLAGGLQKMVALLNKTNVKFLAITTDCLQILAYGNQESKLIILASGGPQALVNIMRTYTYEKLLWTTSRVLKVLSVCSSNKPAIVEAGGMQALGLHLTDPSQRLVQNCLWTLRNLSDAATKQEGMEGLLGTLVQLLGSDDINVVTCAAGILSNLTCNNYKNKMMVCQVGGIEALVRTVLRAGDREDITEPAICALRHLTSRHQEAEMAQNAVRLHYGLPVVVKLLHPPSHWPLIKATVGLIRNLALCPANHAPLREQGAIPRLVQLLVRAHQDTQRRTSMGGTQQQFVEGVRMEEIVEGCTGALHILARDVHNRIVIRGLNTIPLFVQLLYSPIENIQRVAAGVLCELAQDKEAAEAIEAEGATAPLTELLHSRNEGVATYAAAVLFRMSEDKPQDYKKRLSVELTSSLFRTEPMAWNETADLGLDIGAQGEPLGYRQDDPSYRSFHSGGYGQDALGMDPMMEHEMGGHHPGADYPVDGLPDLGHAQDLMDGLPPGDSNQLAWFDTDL
# T3: B-cat-Halo (beta-catenin HaloTag NanoBRET construct expressed in HEK293 cells) (UniProt P35222 1-781)
# T3 sequence (looked up): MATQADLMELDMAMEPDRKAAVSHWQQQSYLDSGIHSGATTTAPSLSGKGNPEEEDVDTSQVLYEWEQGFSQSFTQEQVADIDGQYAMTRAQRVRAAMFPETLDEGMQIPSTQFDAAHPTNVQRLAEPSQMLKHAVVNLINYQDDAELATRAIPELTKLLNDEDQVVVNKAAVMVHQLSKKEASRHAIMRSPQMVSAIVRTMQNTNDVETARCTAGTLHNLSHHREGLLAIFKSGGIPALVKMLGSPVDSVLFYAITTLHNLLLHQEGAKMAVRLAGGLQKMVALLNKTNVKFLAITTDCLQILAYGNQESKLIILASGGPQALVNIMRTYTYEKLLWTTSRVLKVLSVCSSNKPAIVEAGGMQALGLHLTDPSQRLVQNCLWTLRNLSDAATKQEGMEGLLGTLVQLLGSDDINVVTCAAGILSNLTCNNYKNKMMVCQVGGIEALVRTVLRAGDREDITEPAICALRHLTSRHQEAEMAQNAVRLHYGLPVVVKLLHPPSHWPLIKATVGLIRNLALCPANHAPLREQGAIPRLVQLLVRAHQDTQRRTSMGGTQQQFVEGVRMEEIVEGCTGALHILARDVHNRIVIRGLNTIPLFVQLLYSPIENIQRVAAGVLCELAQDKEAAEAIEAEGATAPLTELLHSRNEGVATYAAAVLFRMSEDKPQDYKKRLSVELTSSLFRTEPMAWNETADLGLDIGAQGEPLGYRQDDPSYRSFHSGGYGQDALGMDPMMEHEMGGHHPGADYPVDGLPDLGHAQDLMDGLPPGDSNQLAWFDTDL
# T4: beta-catenin in DLD1 TCF/LEF luciferase reporter cells (UniProt P35222 1-781)
# T4 sequence (looked up): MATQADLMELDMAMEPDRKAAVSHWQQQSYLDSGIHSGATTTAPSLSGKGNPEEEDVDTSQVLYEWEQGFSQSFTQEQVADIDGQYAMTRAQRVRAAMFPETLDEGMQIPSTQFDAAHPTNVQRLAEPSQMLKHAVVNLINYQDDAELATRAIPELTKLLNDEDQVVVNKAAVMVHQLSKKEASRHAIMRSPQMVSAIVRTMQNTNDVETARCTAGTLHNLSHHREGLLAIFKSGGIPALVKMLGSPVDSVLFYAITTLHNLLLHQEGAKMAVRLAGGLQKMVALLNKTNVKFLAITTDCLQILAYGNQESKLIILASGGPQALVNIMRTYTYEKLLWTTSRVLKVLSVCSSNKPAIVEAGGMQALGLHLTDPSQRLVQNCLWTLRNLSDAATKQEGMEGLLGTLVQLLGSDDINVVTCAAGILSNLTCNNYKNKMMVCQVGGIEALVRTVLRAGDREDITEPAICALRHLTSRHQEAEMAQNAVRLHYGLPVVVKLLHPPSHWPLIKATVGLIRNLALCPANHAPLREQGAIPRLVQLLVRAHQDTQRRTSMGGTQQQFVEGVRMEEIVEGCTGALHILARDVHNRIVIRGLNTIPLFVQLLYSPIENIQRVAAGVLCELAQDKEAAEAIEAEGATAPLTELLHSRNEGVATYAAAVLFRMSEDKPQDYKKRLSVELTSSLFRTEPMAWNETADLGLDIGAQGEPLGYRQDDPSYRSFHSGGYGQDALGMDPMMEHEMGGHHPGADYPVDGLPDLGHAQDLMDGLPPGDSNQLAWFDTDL
# T5: beta-catenin in DLD1 TCF/LEF luciferase reporter cells (Homo sapiens (Human), UniProt P35222 1-781)
# T5 sequence: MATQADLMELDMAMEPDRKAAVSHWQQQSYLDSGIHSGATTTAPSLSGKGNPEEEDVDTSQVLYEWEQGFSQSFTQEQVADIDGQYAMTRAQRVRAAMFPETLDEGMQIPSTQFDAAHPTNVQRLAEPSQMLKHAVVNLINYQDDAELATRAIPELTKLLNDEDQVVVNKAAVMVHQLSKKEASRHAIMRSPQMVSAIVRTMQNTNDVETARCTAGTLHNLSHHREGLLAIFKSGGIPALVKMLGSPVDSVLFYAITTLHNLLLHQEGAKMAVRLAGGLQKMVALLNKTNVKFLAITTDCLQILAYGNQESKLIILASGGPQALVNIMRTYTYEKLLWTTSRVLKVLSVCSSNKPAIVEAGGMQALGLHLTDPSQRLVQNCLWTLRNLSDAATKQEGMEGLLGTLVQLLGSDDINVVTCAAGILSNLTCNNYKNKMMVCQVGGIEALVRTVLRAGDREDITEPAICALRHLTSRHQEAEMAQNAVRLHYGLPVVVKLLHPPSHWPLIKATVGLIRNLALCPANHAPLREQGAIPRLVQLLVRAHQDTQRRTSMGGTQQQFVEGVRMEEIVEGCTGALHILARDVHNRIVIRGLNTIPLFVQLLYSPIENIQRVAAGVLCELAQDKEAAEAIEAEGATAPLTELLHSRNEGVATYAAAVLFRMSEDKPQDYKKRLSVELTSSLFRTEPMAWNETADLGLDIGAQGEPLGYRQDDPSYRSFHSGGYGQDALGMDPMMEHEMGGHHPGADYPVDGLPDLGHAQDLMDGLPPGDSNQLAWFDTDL
# How the values were obtained:
# Assay in all cases: cell-based or functional assay
# [1] = target: T1, beta-catenin in DLD1 TCF/LEF luciferase …
# [2] = target: T2, beta-catenin in DLD1 TCF/LEF luciferase …; remark: listed apart in the source
# [3] = target: T3, B-cat-Halo (beta-catenin HaloTag …)
# [4] = target: T4, beta-catenin in DLD1 TCF/LEF luciferase …; remark: listed apart in the source
# [5] = target: T5, beta-catenin in DLD1 TCF/LEF luciferase …
binder,measurement,setting,value
"Ac-[αAllylPro]D[tBuAla][B5(3)]D[TriAzDap](CH2CMe2CO2H)AAFL[PyrS2″][Phe(2-CF3)][Bta]S-NH2 (staple 1-4, 4-11) [I-2372]",DLD1 4% Abs IC50,[1],2.1 µM
"Ac-[αAllylPro]D[tBuAla][B5(3)]D[TriAzDap](CMe2CO2H)AAFL[PyrS2″][Phe(2-CF3)][Bta]S-NH2 (staple 1-4, 4-11) [I-2374]",DLD1 4% Abs IC50,[1],2.6 µM
"Ac-[αAllylPro]D[tBuAla][B5(3)]D[Phe(3-COOH)]AAFL[PyrS2″][Phe(2-CF3)][Bta]QLA-NH2 (staple 1-4, 4-11) [I-2378]",DLD1 4% Abs IC50,[1],1 µM
"Ac-[αAllylPro]D[tBuAla][B5(3)]D[TfeGA]AAFL[PyrS2″][3Thi][Bta][Me2Gln]A-NH2 (staple 1-4, 4-11) [Ac-PL3-Asp-Npg-B5-Asp-TfeGA-Ala-Ala-Phe-Leu-PyrS2-3Thi-BztA-Me2Gln-Ala-NH2]",DLD1 4% Abs IC50,[2],1.4 µM
same,NanoBRET Abs IC50,[3],2.5 µM
"Ac-[αAllylPro]D[tBuAla][B5(3)]D[Phe(3-COOH)][Aib]AF[Abu][PyrS2″][Phe(2-CF3)][Bta][Me2Gln]A-NH2 (staple 1-4, 4-11) [Ac-PL3-Asp-Npg-B5-Asp-3COOHF-Aib-Ala-Phe-Abu-PyrS2-2F3MeF-BztA-Me2Gln-Ala-NH2]",DLD1 4% Abs IC50,[2],6.4 µM
same,NanoBRET Abs IC50,[3],6.2 µM
"Ac-[αAllylPro]D[tBuAla][B5(3)]D[Phe(3-COOH)][Aib]AF[Abu][PyrS2″][3Thi][Bta][Me2Gln]A-NH2 (staple 1-4, 4-11) [Ac-PL3-Asp-Npg-B5-Asp-3COOHF-Aib-Ala-Phe-Abu-PyrS2-3Thi-BztA-Me2Gln-Ala-NH2]",DLD1 4% Abs IC50,[2],0.6 µM
same,NanoBRET Abs IC50,[3],2.3 µM
"Ac-[αAllylPro]D[tBuAla][B5(3)]D[TfeGA]AAFF[PyrS2″]F[Bta]Q-NH2 (staple 1-4, 4-11) [I-988]",DLD1 reporter assay Abs IC50,[4],5.2 µM
"Ac-[αAllylPro]D[tBuAla][B5(3)]D[TfeGA]AAF[hSer][PyrS2″][Phe(2-Cl)][Bta][hSer]-NH2 (staple 1-4, 4-11) [I-993]",DLD1 reporter assay Abs IC50,[4],4.4 µM
"Ac-[αAllylPro]D[tBuAla][B5(3)]D[TfeGA]AAF[hSer][S8][Phe(2-Cl)][Bta]Q-NH2 (staple 1-4, 4-11) [I-996]",DLD1 reporter assay Abs IC50,[4],10.8 µM
"Ac-[αAllylPro]D[tBuAla][B5(4)]D[TfeGA]AAFT[PyrS2″][Phe(2-Cl)][Bta]-Alaol (staple 1-4, 4-11) [I-1242]",DLD1 4% Abs IC50,[5],3.8 µM
"Ac-[αAllylPro]D[tBuAla][B5(4)]DDAAFT[PyrS2″][Phe(2-Cl)][Bta]S-NHEt (staple 1-4, 4-11) [I-1244]",DLD1 4% Abs IC50,[5],15.9 µM
"Ac-[αAllylPro]D[tBuAla][B5(4)]DDAAFT[PyrS2″][Phe(2-Cl)][Bta][Thr(ol)] (staple 1-4, 4-11) [I-1245]",DLD1 4% Abs IC50,[5],4.1 µM
